Experimental data from patent CN115232208A.

Biological target: 人可溶性BLyS (human soluble BLyS) (human) (UniProt Q9Y275)
Assay: cell-based or functional assay

Benlysta (antibody)
IC50 of inhibition of the NF-κB signal downstream of human BLyS binding TACI (luciferase reporter gene assay): 0.0517 µg/mL
